For five molecules, Kd, koff and kon results are on record in patent publication US20200291126A1 (EUTILEX, published 2020).

In assay [1] the target is T1, V-Set And Immunoglobulin Domain Containing 4 (VSIG4) (human, UniProt Q9Y279 20-283, limits assumed).
T1 construct: also called CRIg; Z39Ig
T1 sequence (looked up): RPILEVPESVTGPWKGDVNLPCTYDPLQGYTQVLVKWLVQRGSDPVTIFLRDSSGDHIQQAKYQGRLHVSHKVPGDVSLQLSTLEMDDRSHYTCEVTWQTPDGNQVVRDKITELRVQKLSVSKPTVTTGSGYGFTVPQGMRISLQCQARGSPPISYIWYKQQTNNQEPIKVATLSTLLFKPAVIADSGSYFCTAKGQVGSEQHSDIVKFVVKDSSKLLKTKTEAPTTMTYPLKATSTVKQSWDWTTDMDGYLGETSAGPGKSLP
Put plainly: kinetic affinity measurement; method not stated at the table (SPR named for EU103.2 in FIG. 4B).

The target of assay [2] is T1, V-Set And Immunoglobulin Domain …. Put plainly: kinetic affinity measurement; method not stated.

The Kd is the free concentration of one partner at which half of the binding sites on the other are occupied at equilibrium, for simple one-to-one binding. The low end stands for tighter binding, the high end for weaker binding. Usually koff stands for the first-order rate constant of dissociation. Higher therefore signals a short-lived complex. Usually kon stands for a measure of how fast the partners come together.

B1: EU103.2 antibody (antibody, V domains shown)
VH: QVQLQESGPGLVKPSQTLSLTCSFSGISLTTSGMGVGWIRQPPGKGLEWLADIFWDDNKYYNPSLKSRVTISVDTSKNQFSLKLSSVTAADTAVYYCVRVYYKNDGYFDVWGQGTLVTVSS
VL: EIVMTQSPATLSVSPGERATLSCRASKSVTTSGYSFMHWYQQKPGQAPRLLIYLASNLEPGIPARFSGSGSGTEFTLTISSLQSEDFAVYYCQHSRELPYTFGQGTKLEIK
notes: also called humanized anti-VSIG4 antibody generated from mouse anti-VSIG4 antibody mu6H8
In assay [1], B1 showed a Kd of 71.6 nM, a koff of 0.0131 s⁻¹ and a kon of 183000 M⁻¹ s⁻¹.

B2: A1 antibody (EU103_T01.01) (antibody, V domains shown)
VH: QVTLKESGPTLVKPTQTLTLTCTFSGISLTTSGMGVGWIRQPPGKALEWLADIFWDDNKYYNPSLKSRLTITKDTSKNQVVLTMTNMDPVDTATYYCVRVYYKNDGYFDVWGKGTTVTVSS
VL: DIVLTQSPLSLPVTLGQPASISCRASKSVTTSGYSFMHWYQQRPGQSPRLLIYLASNLEPGVPDRFSGSGSGTDFTLKISRVEAEDVGVYYCQQSGELPYTFGQGTKLEIK
B2: in assay [2], the Kd came to 8.69 nM, the koff was found to be 0.00328 s⁻¹ and the kon was determined as 378000 M⁻¹ s⁻¹.

B3: A2 antibody (EU103_T01.02) (antibody, V domains shown)
VH: QVTLKESGPTLVKPTQTLTLTCTFSGISLTTSGMGVGWIRQPPGKALEWLADIFWDDNKYYNPSLKSRLTITKDTSKNQVVLTMTNMDPVDTATYYCVRVYYKNDGYFDVWGKGTTVTVSS
VL: DIVLTQSPLSLPVTLGQPASISCRASKSVTTSGYSFMHWYQQRPGQSPRLLIYLASNLEPGVPDRFSGSGSGTDFTLKIFRVEAEDVGVYYCQQSGELPYTFGQGTKLEIK
Turning to B3, in assay [2], the Kd came out at 8.23 nM, the dissociation rate constant (koff) is 0.00296 s⁻¹ and the kon was determined as 360000 M⁻¹ s⁻¹.

B4: A2.3 antibody (EU103_T01.02S) (antibody, V domains shown)
VH: QVTLVESGPTLVKPGQTLTLTCTFSGISLTTSGMGVGWIRQPPGKALEWLADIFWDDNKYYNPSLKGRLTITKDTSKNQVYLTMTNMDPVDTATYYCVRVYYKNDGYFDVWGKGTTVTVSS
VL: DIVLTQSPLSLPVTLGQPASISCRASKSVTTSGYSFMHWYQQRPGQSPRLLIYLASNLEPGVPDRFSGSGSGTDFTLKIFRVEAEDVGVYYCQQSGELPYTFGQGTKLEIK
notes: Generated from A2
Turning to B4, in assay [2], binding was put at a Kd of 7.64 nM, the koff is 0.00308 s⁻¹ and the kon came to 404000 M⁻¹ s⁻¹.

B5: A1.3 antibody (EU103_T01.01S) (antibody, V domains shown)
VH: QVTLVESGPTLVKPGQTLTLTCTFSGISLTTSGMGVGWIRQPPGKALEWLADIFWDDNKYYNPSLKGRLTITKDTSKNQVYLTMTNMDPVDTATYYCVRVYYKNDGYFDVWGKGTTVTVSS
VL: DIVLTQSPLSLPVTLGQPASISCRASKSVTTSGYSFMHWYQQRPGQSPRLLIYLASNLEPGVPDRFSGSGSGTDFTLKISRVEAEDVGVYYCQQSGELPYTFGQGTKLEIK
notes: Generated from A1
For B5, in assay [2], the Kd amounted to 7.95 nM, the koff turned out to be 0.0032 s⁻¹ and the kon came out at 402000 M⁻¹ s⁻¹.
